Earlier results on one substance are cited in PMC3897602 (PLoS ONE, 2014).

The conditions of the data set: in vivo, po.

For “biotinylation of exendin-4: biotinylated exendin-4 reported by Jin et al”, the apparent bioavailability was 3.95%.
